Key:
[1] = biological target: T1, 5HT3a (Homo sapiens, UniProt P46098); assay: Ion channel panel (IonWorks Barracuda): 5HT3a; format: cell-based
T1 construct: host or cells: HEK293 or CHO
T1 sequence (P46098 whole entry, looked up): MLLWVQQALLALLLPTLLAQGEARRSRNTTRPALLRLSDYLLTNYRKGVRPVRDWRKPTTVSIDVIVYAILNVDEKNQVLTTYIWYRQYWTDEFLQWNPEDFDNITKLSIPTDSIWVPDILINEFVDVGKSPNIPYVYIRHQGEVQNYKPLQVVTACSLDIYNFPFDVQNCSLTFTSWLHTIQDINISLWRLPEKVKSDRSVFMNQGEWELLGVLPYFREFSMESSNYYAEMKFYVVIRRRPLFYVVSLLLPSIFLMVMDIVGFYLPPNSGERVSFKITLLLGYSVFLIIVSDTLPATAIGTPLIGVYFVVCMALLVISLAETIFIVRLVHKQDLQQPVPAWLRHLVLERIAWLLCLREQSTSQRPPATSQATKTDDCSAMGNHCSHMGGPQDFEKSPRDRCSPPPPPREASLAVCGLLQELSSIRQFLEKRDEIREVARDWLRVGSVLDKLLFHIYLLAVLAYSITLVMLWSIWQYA
Summary of the method: (§1)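 Transfected HEK293 or CHO cells were exposed for at least 5 min to peptides at 200 nM and 20 μM final, tested in duplicate, in HEPES-buffered physiological saline. Activation was taken as peptide-plus-agonist current over control current ×100, and inhibition as 1 minus that ratio ×100. Each channel's control was its own reference compound.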

[2] = biological target: T2, α3β4 (Homo sapiens, UniProt P30926+P32297); assay: Ion channel panel (IonWorks Barracuda): α3β4; format: cell-based; details: 100% = no change, <100% = inhibition
T2 construct: host or cells: HEK293 or CHO
Summary of the method: as §1

[3] = biological target: T3, α4β2 (Homo sapiens, UniProt P17787+P43681); assay: Ion channel panel (IonWorks Barracuda): α4β2; format: cell-based; details: 100% = no change, <100% = inhibition
T3 construct: host or cells: HEK293 or CHO
Summary of the method: as §1

[4] = biological target: T4, Cav2.1 (Homo sapiens, UniProt O00555); assay: cell-based; details: 100% = no change, <100% = inhibition
T4 construct: host or cells: HEK293 or CHO
Summary of the method: as §1

[5] = biological target: T5, Cav2.2 (Homo sapiens, UniProt Q00975); assay: cell-based; details: 100% = no change, <100% = inhibition
T5 construct: host or cells: HEK293 or CHO
Summary of the method: as §1

[6] = biological target: T6, Kv2.1 (Homo sapiens, UniProt Q14721); assay: cell-based; details: 100% = no change, <100% = inhibition
T6 construct: host or cells: HEK293 or CHO
Summary of the method: as §1

[7] = test system: GABA; assay: Ion channel panel (IonWorks Barracuda): GABA; format: cell-based; details: 100% = no change, <100% = inhibition
Summary of the method: as §1

[8] = biological target: Nav1.5 (Homo sapiens, UniProt Q14524); assay: in vitro; details: 100% = no change; for Activity of Nav1.5 with peptide, expressed as a percentage of the reference compound: peptide at 0.2 μM; for Activity of Nav1.5 with peptide (percentage of the reference compound): peptide at 20 μM
Summary of the method: as §1

[9] = biological target: hERG (Homo sapiens, UniProt Q12809); assay: in vitro; details: 100% = no change, <100% = inhibition
Summary of the method: as §1

[10] = biological target: T7, Kir2.1 (Homo sapiens, UniProt P63252); assay: Ion channel panel (IonWorks Barracuda): Kir2.1; format: cell-based; details: 100% = no change, <100% = inhibition
T7 construct: host or cells: HEK293 or CHO
Summary of the method: as §1

[11] = biological target: T8, Kv1.1 (Homo sapiens, UniProt Q09470); assay: cell-based; format: cell-based; details: 100% = no change, <100% = inhibition
T8 construct: host or cells: HEK293 or CHO
Summary of the method: as §1

[12] = biological target: T9, Kv1.2 (Homo sapiens, UniProt P16389); assay: cell-based; format: cell-based; details: 100% = no change, <100% = inhibition
T9 construct: host or cells: HEK293 or CHO
Summary of the method: as §1

[13] = biological target: T10, Kv1.3 (Homo sapiens, UniProt P22001); assay: cell-based; format: cell-based; details: 100% = no change, <100% = inhibition
T10 construct: host or cells: HEK293 or CHO
Summary of the method: as §1

[14] = biological target: T11, Nav1.7 (Homo sapiens, UniProt Q15858); assay: cell-based; format: cell-based; details: 100% = no change; for Activity of Nav1.7 with peptide, expressed as a percentage of the reference compound: peptide at 0.2 μM; for Activity of Nav1.7 with peptide (percentage of the reference compound): peptide at 20 μM
T11 construct: host or cells: HEK293 or CHO

[15] = biological target: T12, NR2A (Homo sapiens, UniProt Q12879); assay: Ion channel panel (IonWorks Barracuda): NR2A; format: cell-based; details: 100% = no change, <100% = inhibition
T12 construct: host or cells: HEK293 or CHO
Summary of the method: as §1

[16] = biological target: T13, NR2B (Homo sapiens, UniProt Q13224); assay: Ion channel panel (IonWorks Barracuda): NR2B; format: cell-based; details: 100% = no change, <100% = inhibition
T13 construct: host or cells: HEK293 or CHO
Summary of the method: as §1

[17] = biological target: T14, TRPA1 (Homo sapiens, UniProt O75762); assay: Ion channel panel (IonWorks Barracuda): TRPA1; format: cell-based; details: 100% = no change, <100% = inhibition
T14 construct: host or cells: HEK293 or CHO
Summary of the method: as §1

[18] = biological target: T15, TRPV1 (Homo sapiens, UniProt Q8NER1); assay: Ion channel panel (IonWorks Barracuda): TRPV1; format: cell-based; details: 100% = no change, <100% = inhibition
T15 construct: host or cells: HEK293 or CHO
Summary of the method: as §1

[19] = first of two Nav1.5 columns (probably TP1)
[20] = second of two Nav1.5 columns (probably TP2)
[21] = first of two Nav1.7 columns (probably TP1)
[22] = second of two Nav1.7 columns (probably TP2)

Sequence of Nav1.5 (Q14524 whole entry): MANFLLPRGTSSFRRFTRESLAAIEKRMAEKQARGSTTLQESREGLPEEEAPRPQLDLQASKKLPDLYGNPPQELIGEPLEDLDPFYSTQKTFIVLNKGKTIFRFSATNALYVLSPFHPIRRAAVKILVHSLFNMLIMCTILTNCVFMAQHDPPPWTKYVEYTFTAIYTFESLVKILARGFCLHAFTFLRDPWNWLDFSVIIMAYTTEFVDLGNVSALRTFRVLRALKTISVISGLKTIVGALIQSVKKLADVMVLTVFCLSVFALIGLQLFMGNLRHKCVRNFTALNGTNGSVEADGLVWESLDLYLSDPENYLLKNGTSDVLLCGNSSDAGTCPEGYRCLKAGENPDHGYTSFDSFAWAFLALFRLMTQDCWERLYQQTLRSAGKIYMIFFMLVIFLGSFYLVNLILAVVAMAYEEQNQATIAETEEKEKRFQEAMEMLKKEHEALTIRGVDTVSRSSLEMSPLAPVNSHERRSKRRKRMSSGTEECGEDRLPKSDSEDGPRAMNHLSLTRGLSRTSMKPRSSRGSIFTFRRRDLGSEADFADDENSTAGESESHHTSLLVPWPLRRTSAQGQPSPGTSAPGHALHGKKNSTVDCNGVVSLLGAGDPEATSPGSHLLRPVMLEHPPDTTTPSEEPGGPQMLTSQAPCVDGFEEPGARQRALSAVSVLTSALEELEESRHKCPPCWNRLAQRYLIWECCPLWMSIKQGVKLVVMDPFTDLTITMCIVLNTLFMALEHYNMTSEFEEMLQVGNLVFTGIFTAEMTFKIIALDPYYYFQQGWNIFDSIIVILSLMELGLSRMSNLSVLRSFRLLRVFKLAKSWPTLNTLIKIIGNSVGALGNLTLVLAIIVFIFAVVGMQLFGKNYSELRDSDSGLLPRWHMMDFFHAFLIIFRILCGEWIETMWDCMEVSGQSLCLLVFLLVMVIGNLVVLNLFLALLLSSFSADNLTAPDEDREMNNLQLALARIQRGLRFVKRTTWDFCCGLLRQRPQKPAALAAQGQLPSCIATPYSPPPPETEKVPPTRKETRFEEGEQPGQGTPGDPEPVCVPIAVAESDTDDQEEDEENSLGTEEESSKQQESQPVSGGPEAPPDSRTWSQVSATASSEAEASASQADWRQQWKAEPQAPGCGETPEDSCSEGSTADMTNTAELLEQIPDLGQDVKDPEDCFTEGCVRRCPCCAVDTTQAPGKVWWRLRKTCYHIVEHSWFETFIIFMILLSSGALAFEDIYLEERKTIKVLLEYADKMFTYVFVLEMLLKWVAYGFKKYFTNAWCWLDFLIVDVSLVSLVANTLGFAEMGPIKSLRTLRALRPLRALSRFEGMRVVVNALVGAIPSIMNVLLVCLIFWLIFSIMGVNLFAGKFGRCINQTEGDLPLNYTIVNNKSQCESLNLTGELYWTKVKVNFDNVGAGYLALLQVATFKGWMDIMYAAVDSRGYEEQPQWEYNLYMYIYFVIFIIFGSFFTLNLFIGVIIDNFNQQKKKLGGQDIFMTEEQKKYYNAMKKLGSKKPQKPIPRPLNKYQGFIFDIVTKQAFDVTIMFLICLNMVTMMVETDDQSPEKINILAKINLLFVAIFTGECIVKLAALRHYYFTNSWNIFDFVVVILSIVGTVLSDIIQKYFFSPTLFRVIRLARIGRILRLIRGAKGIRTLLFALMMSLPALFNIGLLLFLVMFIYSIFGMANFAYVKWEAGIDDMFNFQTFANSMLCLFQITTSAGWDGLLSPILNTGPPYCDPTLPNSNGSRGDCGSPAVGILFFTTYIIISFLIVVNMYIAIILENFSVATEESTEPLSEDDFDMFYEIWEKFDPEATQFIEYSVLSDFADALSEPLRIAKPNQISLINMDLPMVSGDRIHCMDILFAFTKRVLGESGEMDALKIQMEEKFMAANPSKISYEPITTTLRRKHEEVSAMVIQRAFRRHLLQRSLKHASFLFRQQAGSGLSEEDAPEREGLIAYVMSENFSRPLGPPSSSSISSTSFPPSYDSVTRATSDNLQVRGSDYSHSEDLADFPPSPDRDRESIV
T11 sequence (Q15858 whole entry): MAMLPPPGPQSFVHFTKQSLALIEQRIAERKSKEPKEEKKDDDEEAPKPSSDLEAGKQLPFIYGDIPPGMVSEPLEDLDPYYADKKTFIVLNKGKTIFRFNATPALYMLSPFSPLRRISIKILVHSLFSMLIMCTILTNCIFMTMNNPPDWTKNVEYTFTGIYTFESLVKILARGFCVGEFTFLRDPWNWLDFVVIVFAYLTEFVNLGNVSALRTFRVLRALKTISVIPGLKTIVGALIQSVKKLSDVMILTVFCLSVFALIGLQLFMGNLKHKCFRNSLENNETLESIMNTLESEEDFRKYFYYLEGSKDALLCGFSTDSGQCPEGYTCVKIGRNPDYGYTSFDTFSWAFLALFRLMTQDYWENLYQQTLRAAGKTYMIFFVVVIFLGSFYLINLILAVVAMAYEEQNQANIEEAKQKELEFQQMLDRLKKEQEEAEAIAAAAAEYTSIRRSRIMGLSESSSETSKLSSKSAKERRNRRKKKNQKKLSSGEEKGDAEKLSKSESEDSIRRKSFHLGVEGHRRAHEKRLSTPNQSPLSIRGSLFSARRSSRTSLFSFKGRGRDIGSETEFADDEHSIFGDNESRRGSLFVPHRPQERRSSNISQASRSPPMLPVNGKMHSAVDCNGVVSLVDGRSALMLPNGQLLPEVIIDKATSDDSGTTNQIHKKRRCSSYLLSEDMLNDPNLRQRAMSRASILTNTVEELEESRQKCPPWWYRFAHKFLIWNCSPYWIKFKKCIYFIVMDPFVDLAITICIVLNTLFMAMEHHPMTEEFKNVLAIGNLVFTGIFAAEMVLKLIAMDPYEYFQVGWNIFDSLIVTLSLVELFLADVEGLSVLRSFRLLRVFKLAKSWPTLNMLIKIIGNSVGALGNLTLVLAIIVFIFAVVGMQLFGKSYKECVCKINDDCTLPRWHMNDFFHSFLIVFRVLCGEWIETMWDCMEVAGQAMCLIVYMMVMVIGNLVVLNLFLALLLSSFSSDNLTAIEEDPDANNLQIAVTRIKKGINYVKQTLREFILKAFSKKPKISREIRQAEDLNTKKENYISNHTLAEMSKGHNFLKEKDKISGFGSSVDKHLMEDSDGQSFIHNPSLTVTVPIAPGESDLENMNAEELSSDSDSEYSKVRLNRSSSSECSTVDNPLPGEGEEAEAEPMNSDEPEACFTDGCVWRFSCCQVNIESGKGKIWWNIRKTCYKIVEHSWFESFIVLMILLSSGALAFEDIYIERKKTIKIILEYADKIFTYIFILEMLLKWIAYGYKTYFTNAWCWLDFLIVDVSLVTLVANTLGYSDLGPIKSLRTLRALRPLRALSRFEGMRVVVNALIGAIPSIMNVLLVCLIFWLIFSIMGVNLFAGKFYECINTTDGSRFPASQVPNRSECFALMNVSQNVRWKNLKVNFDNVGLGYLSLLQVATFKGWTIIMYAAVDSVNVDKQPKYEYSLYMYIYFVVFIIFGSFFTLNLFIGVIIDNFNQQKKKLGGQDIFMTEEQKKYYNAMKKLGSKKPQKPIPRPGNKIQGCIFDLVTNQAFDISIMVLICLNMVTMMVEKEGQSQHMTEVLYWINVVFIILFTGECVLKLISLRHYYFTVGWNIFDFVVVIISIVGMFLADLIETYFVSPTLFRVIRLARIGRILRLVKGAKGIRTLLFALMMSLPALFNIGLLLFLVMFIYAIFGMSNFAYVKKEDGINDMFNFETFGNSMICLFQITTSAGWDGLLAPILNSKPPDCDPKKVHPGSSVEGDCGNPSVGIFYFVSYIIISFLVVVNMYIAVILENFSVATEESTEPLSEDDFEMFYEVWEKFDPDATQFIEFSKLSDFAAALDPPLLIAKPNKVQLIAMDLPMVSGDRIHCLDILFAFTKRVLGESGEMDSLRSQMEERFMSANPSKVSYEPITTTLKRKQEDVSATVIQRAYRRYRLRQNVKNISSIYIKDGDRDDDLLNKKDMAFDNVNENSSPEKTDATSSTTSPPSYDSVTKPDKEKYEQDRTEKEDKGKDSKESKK
T14 sequence (O75762 whole entry): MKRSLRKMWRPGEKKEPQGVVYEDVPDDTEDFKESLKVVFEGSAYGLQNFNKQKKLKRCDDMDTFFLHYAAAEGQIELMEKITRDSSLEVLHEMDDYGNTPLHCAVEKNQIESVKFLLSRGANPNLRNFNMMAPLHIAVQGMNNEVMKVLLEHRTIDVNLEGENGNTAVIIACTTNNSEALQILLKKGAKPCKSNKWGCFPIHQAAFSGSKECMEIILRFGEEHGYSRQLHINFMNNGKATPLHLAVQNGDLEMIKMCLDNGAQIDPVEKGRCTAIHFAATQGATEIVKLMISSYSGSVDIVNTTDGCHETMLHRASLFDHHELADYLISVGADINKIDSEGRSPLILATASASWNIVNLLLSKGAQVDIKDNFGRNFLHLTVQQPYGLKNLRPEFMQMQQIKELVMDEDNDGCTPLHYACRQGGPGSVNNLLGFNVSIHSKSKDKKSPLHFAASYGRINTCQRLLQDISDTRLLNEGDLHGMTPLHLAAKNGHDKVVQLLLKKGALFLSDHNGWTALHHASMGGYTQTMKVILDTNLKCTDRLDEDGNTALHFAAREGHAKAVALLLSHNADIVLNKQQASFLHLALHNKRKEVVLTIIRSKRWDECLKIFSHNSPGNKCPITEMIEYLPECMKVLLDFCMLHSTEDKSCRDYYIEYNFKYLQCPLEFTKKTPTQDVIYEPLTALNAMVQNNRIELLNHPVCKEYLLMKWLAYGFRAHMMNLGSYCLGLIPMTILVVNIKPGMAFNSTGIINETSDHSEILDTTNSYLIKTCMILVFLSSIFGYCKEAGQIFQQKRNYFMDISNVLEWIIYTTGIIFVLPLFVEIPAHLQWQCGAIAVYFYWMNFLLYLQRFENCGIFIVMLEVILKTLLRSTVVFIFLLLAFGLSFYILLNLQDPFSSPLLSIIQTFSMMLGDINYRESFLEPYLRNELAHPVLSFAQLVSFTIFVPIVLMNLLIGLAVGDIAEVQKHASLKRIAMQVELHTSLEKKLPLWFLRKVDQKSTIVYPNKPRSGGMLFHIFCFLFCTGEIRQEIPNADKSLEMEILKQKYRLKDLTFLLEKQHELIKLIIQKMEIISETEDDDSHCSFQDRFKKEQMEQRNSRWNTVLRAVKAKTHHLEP

## 16 (GSQFCGTNGKPCVNGQCCGALRCVVTYHYADGVCLKMNP) [compound 16]
[1]
  Activity of 5HT3a with peptide (percentage of the reference compound): 103%
  Activity of 5HT3a with peptide, expressed as a percentage of the reference compound: 114%
[2]; peptide at 0.2 μM
  Activity of a3b4 with peptide, expressed as a percentage of the reference compound: 100%
[2]; peptide at 20 μM
  Activity of a3b4 with peptide (percentage of the reference compound): 95%
[3]; peptide at 0.2 μM
  Activity of a4b2 with peptide, expressed as a percentage of the reference compound: 83%
[3]; peptide at 20 μM
  Activity of a4b2 with peptide (percentage of the reference compound): 72%
[4]; peptide at 0.2 μM
  Activity of Cav2.1 with peptide, expressed as a percentage of the reference compound: 113%
[4]; peptide at 20 μM
  Activity of Cav2.1 with peptide (percentage of the reference compound): 92%
[5]; peptide at 0.2 μM
  Activity of Cav2.2 with peptide, expressed as a percentage of the reference compound: 124%
[5]; peptide at 20 μM
  Activity of Cav2.2 with peptide (percentage of the reference compound): 104%
[6]; peptide at 0.2 μM
  Activity of Kv2.1 with peptide, expressed as a percentage of the reference compound: 114%
[6]; peptide at 20 μM
  Activity of Kv2.1 with peptide (percentage of the reference compound): 98%
[7]; peptide at 0.2 μM
  Activity of GABA with peptide, expressed as a percentage of the reference compound: 102%
[7]; peptide at 20 μM
  Activity of GABA with peptide (percentage of the reference compound): 109%
[8]; [19]
  Activity of Nav1.5 with peptide, expressed as a percentage of the reference compound: 107%
  Activity of Nav1.5 with peptide (percentage of the reference compound): 93%
[8]; [20]
  Activity of Nav1.5 with peptide, expressed as a percentage of the reference compound: 104%
  Activity of Nav1.5 with peptide (percentage of the reference compound): 93%
[9]; peptide at 0.2 μM
  Activity of hERG with peptide, expressed as a percentage of the reference compound: 74%
[9]; peptide at 20 μM
  Activity of hERG with peptide (percentage of the reference compound): 71%
[10]; peptide at 0.2 μM
  Activity of Kir2.1 with peptide, expressed as a percentage of the reference compound: 98%
[10]; peptide at 20 μM
  Activity of Kir2.1 with peptide (percentage of the reference compound): 92%
[11]; peptide at 0.2 μM
  Activity of Kv1.1 with peptide, expressed as a percentage of the reference compound: 84%
[11]; peptide at 20 μM
  Activity of Kv1.1 with peptide (percentage of the reference compound): 67%
[12]; peptide at 0.2 μM
  Activity of Kv1.2 with peptide, expressed as a percentage of the reference compound: 78%
[12]; peptide at 20 μM
  Activity of Kv1.2 with peptide (percentage of the reference compound): 61%
[13]; peptide at 0.2 μM
  Activity of Kv1.3 with peptide, expressed as a percentage of the reference compound: 92%
[13]; peptide at 20 μM
  Activity of Kv1.3 with peptide (percentage of the reference compound): 92%
[14]; [21]
  Activity of Nav1.7 with peptide, expressed as a percentage of the reference compound: 86%
  Activity of Nav1.7 with peptide (percentage of the reference compound): 66%
[14]; [22]
  Activity of Nav1.7 with peptide, expressed as a percentage of the reference compound: 91%
  Activity of Nav1.7 with peptide (percentage of the reference compound): 43%
[15]; peptide at 0.2 μM
  Activity of NR2A with peptide, expressed as a percentage of the reference compound: 101%
[15]; peptide at 20 μM
  Activity of NR2A with peptide (percentage of the reference compound): 95%
[16]; peptide at 0.2 μM
  Activity of NR2B with peptide, expressed as a percentage of the reference compound: 88%
[16]; peptide at 20 μM
  Activity of NR2B with peptide (percentage of the reference compound): 91%
[17]; peptide at 0.2 μM
  Activity of TRPA1 with peptide, expressed as a percentage of the reference compound: 99%
[17]; peptide at 20 μM
  Activity of TRPA1 with peptide (percentage of the reference compound): 116%
[18]; peptide at 0.2 μM
  Activity of TRPV1 with peptide, expressed as a percentage of the reference compound: 107%
[18]; peptide at 20 μM
  Activity of TRPV1 with peptide (percentage of the reference compound): 88%
